From US20250011391A1, “ULTRA LIGHT-SENSITIVE NEUROPSIN-BASED OPTOGENETIC TOOL FOR ACTIVATING G q-COUPLED SIGNALING AND/OR ACTIVATING CELLS” (GENANS BIOTECHNOLOGY CO., LTD, priority 2021, published 2025)
Entries after “also recorded” stand apart in the source; their conditions may differ. Numbered stars: 1 amine (or outer) side, 2 acyl side, 3 side chain; on linkers, the order of the positions; unused ones are H or OH. Bridge positions count the residues as written; N and C are the ends. Square brackets hold non-standard residues; d marks the D form. Peptide text beside a SMILES is read from it. X1 = CC(=O)NC(C(=O)OC(C(C)C)C(N[*:1])C(=O)[*:2])C(O)C(C)C; PhLac = O=C(O)[CH](O)Cc1ccccc1; NMeT = CN[CH](C(=O)O)[CH](C)O; NMeA = CN[CH](C)C(=O)O; NMeDha = C=C(NC)C(=O)O

Columns and labels:
Gq proteins [1] = molecular target: Gq proteins
[2] = system: Gq signaling in HEK 293T cells; assay: Light-induced Ca2+ signal (Calbryte 630 AM dye) in opsin-expressing HEK 293T cells; type: cell-based; conditions: for light-induced increase in Ca2+ signal: blue light 10 s, 100 μW/mm2, 488 nm, no exogenous retinal
Method: (§1) Whether heterologous expression of the Opn5 orthologs from chicken, turtles, humans and mice (which share 80-90% protein sequence identity) have the capacity to mediate blue light-induced Gq signaling activation within HEK 293T cells is tested (FIG. 1a and table 7). Blue light for stimulation and the red intracellular calcium indicator Calbryte™ 630 AM dye are used to monitor the relative Ca^2+ response (FIG. 1b).
b, Pseudocolor images of the Ca2+ signal before and after blue light stimulation (10 s; 100 μW/mm^2; 488 nm) in HEK 293T cells expressing Opn5 from three species (Gallus gallus, Homo sapiens, and Mus musculus). Scale bar, 10 μm.
Characterizing the light-activating properties of cOpn5 heterologously expressed in HEK 293T cells is performed. […] The effects of different light durations on cOpn5-expressing HEK 293T cells are tested. […] Therefore, the light sensitivity of cOpn5 is 3-4 orders of magnitude higher than the reported values of the light-sensitive Gq-coupled GPCRs and even 2-3 orders higher than those of the commonly used optogenetic tool Channelrhodopsin-2 (ChR2)(Lin, 2011; Zhang et al., 2006) (table 8).
The performance of cOpn5 to that of opto-a1AR, a chimera GPCR engineered by mixing rhodopsin with Gq-coupled adrenergic receptor is compared. […] The performance of cOpn5 to that of opn4, a natural opsin which was reported as a tool for Gq signaling activating is also compared. […] Therefore, compared with existing opsin-based tools (opto-a1AR and opn4), cOpn5 is much more light-sensitive (˜3 orders more sensitive), requires much shorter time exposure (10 ms vs. 60 s), and produces stronger responses. […]
Experiments description: the following table 9 is a partial list of cOpn5 orthologs from vertebrata tested in the present invention. Whole genes of all reported opsin5 orthologs from vertebrata (the vertebrates subphylum, including rotundia, cartilaginous fishes, bony fishes, Amphibia, reptila, ornitha and mammals) are synthetized, and expressed in HEK 293T cells. Calcium imaging with or without 470 nm blue light stimulation is performed to test the sensitivity of the opsin 5 orthologs in response to light. The time course of light-induced calcium signal reveal the activated degree of Gq signaling pathway and the sensitivity of these orthologs.

[3] = system: Gq signaling in HEK 293T cells; assay: IP1 accumulation in Opn5-expressing HEK 293T cells; type: cell-based; conditions: 100 μW/mm2, 470 nm; for effect on light-evoked IP1 accumulation in cOpn5-expressing cells: YM-254890 treatment, 3 min; for light-induced increase in the level of inositol phosphate (IP1): continuous light 3 min
Method: as §1
f, YM suppressed the IP1 accumulation evoked by continuous light stimulation (3 min; 100 μW/mm^2; 470 nm) in cOpn5-expressing HEK 293T cells (Left). ***P<0.0001, *P=0.0128; Tukey's multiple comparisons test.

Gq proteins [4] = molecular target: Gq proteins; remark: listed apart in the source
Gi signaling = assay: cAMP levels in Opn5-expressing HEK 293T cells after photostimulation; type: cell-based; conditions: with retinal (10 μM retinal preincubation)
Method: as §1
f, Light has no effect on cAMP levels (10 μM forskolin preincubation) in cOpn5-expressing HEK 293T cells without additional retinal in the medium (left panel).

[5] = system: astrocytes within the mouse S1 cortex; assay: In vivo two-photon imaging (920 nm) of ATP release (GRABATP sensor) following astrocyte activation; conditions: eight hours after intraperitoneal LPS
in vivo astrocytes = conditions: cited from earlier work
HEK293-TRPC3 cells = conditions: cited from earlier work

## Turtle Opn5 (opsin 5) (receptor)
Gq proteins [1]
  light-induced Ca^2+ signal (Calbryte 630 AM) in HEK 293T cells: 3 ΔF/F

## C=C1C(=O)NC(C)C(=O)N(C)C(C)C(=O)NC(C(OC(=O)C(NC(C)=O)C(O)C(C)C)C(C)C)C(=O)N(C)C(C(C)OC)C(=O)OC(C)C(NC(C)=O)C(=O)OC(Cc2ccccc2)C(=O)N1C (centres unmarked) [YM-254890, reference compound] (Ac-T[PhLac][NMeDha]A[NMeA][X1][NMeT](Me); ester 1-C; configuration not given here)
[2]; YM-254890 10 nM preincubation, cOpn5-expressing HEK 293T cells
  effect on cOpn5-mediated, light-induced Ca2+ signals: reversibly abolishes; also recorded: reversibly blocked
[2]; YM-254890 10 nM, turtle Opn5-expressing HEK 293T cells
  effect on turtle Opn5-mediated, light-induced Ca2+ signals: reversibly blocked
[3]
  effect on light-evoked IP1 accumulation in cOpn5-expressing cells: reduced
[3]; listed as YM
  effect on light-evoked IP1 accumulation in cOpn5-expressing cells: suppressed

## human OPN4 (melanopsin) (from UniProt Q9UHM6) (receptor)
Gq proteins [4]
  light-induced Ca^2+ signal in HEK 293T cells: 1 ΔF/F

## Chicken Opn5 (opsin 5, neuropsin) (receptor)
Gq proteins [1]
  light-induced Ca^2+ signal (Calbryte 630 AM) in HEK 293T cells: 3 ΔF/F

## hOPN5: Human (Homo sapiens) Opn5 ortholog, GenBank AY377391.1 [reference compound]
[2]
  light-induced increase in Ca2+ signal: no light effect
Gi signaling
  effect of blue light illumination on cAMP levels: effectively reduces cAMP levels
[3]; listed as human OPN5
  light-induced increase in the level of inositol phosphate (IP1): not
[3]; listed as human Opn5
  light-induced increase in the level of inositol phosphate (IP1): no significant difference

## lipopolysaccharide [LPS]
[5]
  increase of ATP flash events over basal condition: ~6 fold
[5]; mice expressing GRABATP alone
  ATP flash frequency: ~2 flashes per min

## opto-a1AR (receptor)
Gq proteins [4]
  light-induced Ca^2+ signal in HEK 293T cells: 0.5 ΔF/F

B1: tOpn5: Turtle (Chelonia mydas) Opn5 ortholog, SEQ ID NO:2, GenBank XM_007068312.4 (protein)
chain: MASNHSTSPQDDHLPHYLQDEDPFASKLSREADIVAGFYLTIIGVLSTFGNGYVLFMSLKRKKKLKPAEIMTVNLAMCDLGISVVGKPFSIISFFSHRWVFGWLGCRWYGWAGFFFGCGSLITLTAVSLDRYLKICHLTYGTWLKRHHAFICLAIIWAYATFWATVPFAGLGNYAPEPFGTSCTLDWWLAQGSVAGQAFILNILFFCLLLPTAVIVFSYVKIIAKVKSSAKEVAHYDTRIQNSHVLEIKLTKVAMLICAGFLIAWIPYAVVSVWSAFGQPDSVPIQVSVIPTLLAKSAAMYNPIIYQVIDCKFSCCRSLQKKSSLKKSRLYTISGNREPTEMNETHLEL
modifications: Chelonia mydas
[2]
  light-induced increase in Ca2+ signal: ~3 ΔF/F

B2: mOpn5: Mouse (Mus musculus) Opn5 ortholog, GenBank NM_181753.4 (protein)
chain: MALNHTALPQDERLPHYLRDEDPFASKLSWEADLVAGFYLTIIGILSTFGNGYVLYMSSRRKKKLRPAEIMTINLAVCDLGISVVGKPFTIISCFCHRWVFGWFGCRWYGWAGFFFGCGSLITMTAVSLDRYLKICYLSYGVWLKRKHAYICLAVIWAYASFWTTMPLVGLGDYAPEPFGTSCTLDWWLAQASGGGQVFILSILFFCLLLPTAVIVFSYAKIIAKVKSSSKEVAHFDSRIHSSHVLEVKLTKVAMLICAGFLIAWIPYAVVSVWSAFGRPDSIPIQLSVVPTLLAKSAAMYNPIIYQVIDYRFACCQAGGLRGTKKKSLEDFRLHTVTAVRKSSAVLEIHPESSSRFTSAHVMDGESHSNDGDCGKK
[2]
  light-induced increase in Ca2+ signal: no light effect
Gi signaling
  effect of blue light illumination on cAMP levels: effectively reduces cAMP levels

B3: human melanopsin: a natural opsin (melanopsin, Opn4) reported as a tool for Gq signaling activating (protein)
chain: MNPPSGPRVPPSPTQEPSCMATPAPPSWWDSSQSSISSLGRLPSISPTAPGTWAAAWVPLPTVDVPDHAHYTLGTVILLVGLTGMLGNLTVIYTFCRSRSLRTPANMFIINLAVSDFLMSFTQAPVFFTSSLYKQWLFGETGCEFYAFCGALFGISSMITLTAIALDRYLVITRPLATFGVASKRRAAFVLLGVWLYALAWSLPPFFGWSAYVPEGLLTSCSWDYMSFTPAVRAYTMLLCCFVFFLPLLIIIYCYIFIFRAIRETGRALQTFGACKGNGESLWQRQRLQSECKMAKIMLLVILLFVLSWAPYSAVALVAFAGYAHVLTPYMSSVPAVIAKASAIHNPIIYAITHPKYRVAIAQHLPCLGVLLGVSRRHSRPYPSYRSTHRSTLTSHTSNLSWISIRRRQESLGSESEVGWTHMEAAAVWGAAQQANGRSLYGQGLEDLEAKAPPRPQGHEAETPGKTKGLIPSQDPRM
[2]; OPN4-expressing cells, 25 s light, without ATR
  effect of light on Ca2+ signals without ATR: lack of effect
[2]; Table 8, HEK 293T
  Light Sensitivity: 40 mW/mm^2
[2]; Table 8, HEK 293T, light as in the row's sensitivity and duration columns
  Response amplitude: Ca2+ response amplitude: ~0.646 (ΔF/F)
[2]; opn4-expressing cells, 25 s, 40 mW/mm2, additional retinal
  Ca2+ signal increase: ~1 ΔF/F
In vivo astrocytes
  Light Sensitivity: 7 mW/mm^2
  Response amplitude: Ca2+ event frequence: ~2 (ΔF/F)
  change in Ca2+ amplitude: no significant

B4: mouse melanopsin (Opn4): mouse melanopsin, literature optogenetic tool in Table 8 (protein, UniProt Q9QXZ9 1-521, looked up)
Melanopsin: MDSPSGPRVLSSLTQDPSFTTSPALQGIWNGTQNVSVRAQLLSVSPTTSAHQAAAWVPFPTVDVPDHAHYTLGTVILLVGLTGMLGNLTVIYTFCRNRGLRTPANMFIINLAVSDFLMSVTQAPVFFASSLYKKWLFGETGCEFYAFCGAVFGITSMITLTAIAMDRYLVITRPLATIGRGSKRRTALVLLGVWLYALAWSLPPFFGWSAYVPEGLLTSCSWDYMTFTPQVRAYTMLLFCFVFFLPLLIIIFCYIFIFRAIRETGRACEGCGESPLRQRRQWQRLQSEWKMAKVALIVILLFVLSWAPYSTVALVAFAGYSHILTPYMSSVPAVIAKASAIHNPIIYAITHPKYRVAIAQHLPCLGVLLGVSGQRSHPSLSYRSTHRSTLSSQSSDLSWISGRKRQESLGSESEVGWTDTETTAAWGAAQQASGQSFCSQNLEDGELKASSSPQVQRSKTPKVPGPSTCRPMKGQGARPSSLRGDQKGRLAVCTGLSECPHPHTSQFPLAFLEDDVTLRHL
HEK293-TRPC3 cells; (500 nm)
  Light Sensitivity: 1e+15 photons s^−1 cm^−2
HEK293-TRPC3 cells
  Response amplitude: Ca2+ response ampitude: ~0.1 (ΔF/F)
